Reference: patent publication US20220324928, “Zinc Finger Protein Transcription Factors for Repressing Alpha-Synuclein Expression” (Sangamo Therapeutics, Inc., published 2022)

Experiments:
Assay in all cases: cell_activity; SNCA mRNA repression at highest dose
Settings in all cases: tags: NLS, C-terminal KOX1 KRAB
ZFP-TF SBS-82197 = ZFP-TF SBS-82197 (Artificial Sequence)
ZFP-TF SBS-82190 = ZFP-TF SBS-82190 (Artificial Sequence)
ZFP-TF SBS-82294 = ZFP-TF SBS-82294 (Artificial Sequence)
ZFP-TF SBS-82150 = ZFP-TF SBS-82150 (Artificial Sequence)
ZFP-TF SBS-82225 = ZFP-TF SBS-82225 (Artificial Sequence)
ZFP-TF SBS-82092 = ZFP-TF SBS-82092 (Artificial Sequence)
ZFP-TF SBS-82090 = ZFP-TF SBS-82090 (Artificial Sequence)
ZFP-TF SBS-82215 = ZFP-TF SBS-82215 (Artificial Sequence)
ZFP-TF SBS-82107 = ZFP-TF SBS-82107 (Artificial Sequence)
Chain of ZFP-TF SBS-82107 (Artificial Sequence) (chain, as listed by the source): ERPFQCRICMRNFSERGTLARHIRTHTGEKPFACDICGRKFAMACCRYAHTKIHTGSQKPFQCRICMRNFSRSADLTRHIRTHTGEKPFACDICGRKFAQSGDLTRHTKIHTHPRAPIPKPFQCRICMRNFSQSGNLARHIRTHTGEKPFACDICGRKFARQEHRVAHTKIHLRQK

Chain of ZFP-TF SBS-82190 (Artificial Sequence) (chain, as listed by the source): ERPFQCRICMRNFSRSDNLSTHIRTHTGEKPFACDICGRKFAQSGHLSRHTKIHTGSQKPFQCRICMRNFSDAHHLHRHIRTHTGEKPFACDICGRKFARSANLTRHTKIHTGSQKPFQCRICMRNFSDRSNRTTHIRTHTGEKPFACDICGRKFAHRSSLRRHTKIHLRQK
Chain of ZFP-TF SBS-82150 (Artificial Sequence) (chain, as listed by the source): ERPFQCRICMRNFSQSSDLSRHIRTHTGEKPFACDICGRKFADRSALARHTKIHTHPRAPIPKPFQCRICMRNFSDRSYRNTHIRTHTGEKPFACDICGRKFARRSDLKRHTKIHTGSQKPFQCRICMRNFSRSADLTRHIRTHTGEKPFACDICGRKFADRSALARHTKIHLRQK
Chain of ZFP-TF SBS-82215 (Artificial Sequence) (chain, as listed by the source): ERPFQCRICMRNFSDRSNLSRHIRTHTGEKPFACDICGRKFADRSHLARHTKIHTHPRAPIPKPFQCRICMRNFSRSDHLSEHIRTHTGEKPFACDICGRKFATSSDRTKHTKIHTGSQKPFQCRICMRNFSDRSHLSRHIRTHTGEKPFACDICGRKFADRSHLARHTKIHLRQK
Chain of ZFP-TF SBS-82225 (Artificial Sequence) (chain, as listed by the source): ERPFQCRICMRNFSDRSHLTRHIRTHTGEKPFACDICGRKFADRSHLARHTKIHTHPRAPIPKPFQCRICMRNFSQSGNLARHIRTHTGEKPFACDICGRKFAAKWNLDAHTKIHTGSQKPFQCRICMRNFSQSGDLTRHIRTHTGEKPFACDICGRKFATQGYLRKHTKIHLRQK
Chain of ZFP-TF SBS-82294 (Artificial Sequence) (chain, as listed by the source): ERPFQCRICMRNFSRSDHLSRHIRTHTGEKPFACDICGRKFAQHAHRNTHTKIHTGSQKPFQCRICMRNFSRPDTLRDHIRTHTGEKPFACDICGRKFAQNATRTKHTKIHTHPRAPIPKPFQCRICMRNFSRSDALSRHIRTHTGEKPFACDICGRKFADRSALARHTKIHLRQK
Chain of ZFP-TF SBS-82092 (Artificial Sequence) (chain, as listed by the source): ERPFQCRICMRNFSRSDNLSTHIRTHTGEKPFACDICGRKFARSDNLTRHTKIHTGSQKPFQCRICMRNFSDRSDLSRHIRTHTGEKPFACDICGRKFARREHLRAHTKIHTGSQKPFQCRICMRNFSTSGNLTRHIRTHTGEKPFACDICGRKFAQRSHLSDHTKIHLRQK
Chain of ZFP-TF SBS-82090 (Artificial Sequence) (chain, as listed by the source): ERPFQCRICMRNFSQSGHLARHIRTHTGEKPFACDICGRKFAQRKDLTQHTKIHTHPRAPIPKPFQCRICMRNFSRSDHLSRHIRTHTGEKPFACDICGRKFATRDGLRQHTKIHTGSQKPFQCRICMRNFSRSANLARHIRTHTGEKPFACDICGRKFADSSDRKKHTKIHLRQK
Chain of ZFP-TF SBS-82197 (Artificial Sequence) (chain, as listed by the source): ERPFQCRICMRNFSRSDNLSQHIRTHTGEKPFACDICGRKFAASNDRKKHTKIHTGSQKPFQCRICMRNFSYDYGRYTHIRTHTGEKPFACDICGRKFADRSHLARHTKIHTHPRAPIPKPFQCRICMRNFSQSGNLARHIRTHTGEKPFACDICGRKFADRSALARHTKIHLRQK

B1: SNCA site 82197 (dsDNA)
DNA 1: CGTCGAATGGCCACTCCCAGT
DNA 2: ACTGGGAGTGGCCATTCGACG
Q: B1 was tested. Which activity (ZFP-TF SBS-82197) did it give?
A: ≥ 95 % repression

B2: SNCA site 82190 (dsDNA)
DNA 1: CGCTCACGAGGGTGGAAAGG
DNA 2: CCTTTCCACCCTCGTGAGCG
Q: B2 was tested. Which activity (ZFP-TF SBS-82190) did it give?
A: ≥ 95 % repression

B3: SNCA site 82294 (dsDNA)
DNA 1: GGTCGTGGGCACCGGGAGGGG
DNA 2: CCCCTCCCGGTGCCCACGACC
Q: With B3 as the binder, how does the activity (ZFP-TF SBS-82294) read?
A: ≥ 95 % repression

B4: SNCA site 82150 (dsDNA)
DNA 1: CGTCGCGGCGCTCGGTCGCTC
DNA 2: GAGCGACCGAGCGCCGCGACG
Q: With B4 as the binder, how does the activity (ZFP-TF SBS-82150) read?
A: ≥ 95 % repression

B5: SNCA site 82225 (dsDNA)
DNA 1: GAGCGCACAGGAAGGGCGGAG
DNA 2: CTCCGCCCTTCCTGTGCGCTC
Q: For B5, which activity (ZFP-TF SBS-82225) is on record?
A: ≥ 95 % repression

B6: SNCA site 82092 (dsDNA)
DNA 1: CCGAGATAGGGACGAGGAGC
DNA 2: GCTCCTCGTCCCTATCTCGG
Q: With B6 as the binder, how does the activity (ZFP-TF SBS-82092) read?
A: ≥ 95 % repression

B7: SNCA site 82090 (dsDNA)
DNA 1: ATCCGAGATAGGGACGAGGAG
DNA 2: CTCCTCGTCCCTATCTCGGAT
Q: For B7, which activity (ZFP-TF SBS-82090) is on record?
A: ≥ 95 % repression

B8: SNCA site 82215 (dsDNA)
DNA 1: AGGCGGCACCCGGGGGGGACT
DNA 2: AGTCCCCCCCGGGTGCCGCCT
Q: How did the activity (ZFP-TF SBS-82215) turn out when B8 was run?
A: ≥ 95 % repression

B9: SNCA site 82107 (dsDNA)
DNA 1: CAGGGAAAGCAGCGAGCGCCG
DNA 2: CGGCGCTCGCTGCTTTCCCTG
Q: Which activity (ZFP-TF SBS-82107) does the source give for B9 here?
A: ≥ 95 % repression
